This is an account of results in article PMC5018249.

The target in test [1] is BG505 SOSIP-GT3-PADRE (HIV-1 strain BG505). Nature of the test: SEC-MALS; purified immunogen in solution; conditions not given. On the technique in general: In gel filtration, larger molecules generally elute earlier.
The target in test [2] is BG505 SOSIP.D664 (HIV-1 strain BG505). The experiment in a line: SEC-MALS + other: negative-stain electron microscopy; in-house purified BG505 SOSIP trimers, thawed and analysed.

For BG505 SOSIP-GT3-PADRE, in test [1], the stoichiometry N (in general, the number of molecules, sites or subunits per partner or assembly) came out at 3.
BG505 SOSIP.D664 (domain or fragment): in test [2], the stoichiometry N stood at 3.
